From US20100323957A1, “NOVEL ASSAY FOR INHIBITORS OF EGFR” (THE REGENTS OF THE UNIVERSITY OF CALIFORNIA THE OFFICE OF …, priority 2007, published 2010) come the findings set out here.

The target in test [1] is T1, EGFR kinase domain L834R mutant (Homo sapiens, UniProt P00533, L858R).
T1 construct: DNA encoding residues 672-998 of human EGFR was cloned into pFAST BAC HT; made in house; host or cells: Sf9 insect cells (baculovirus)
Put plainly: Kinase assay in solution, L834R mutant kinase domain. Format: biochemical. As to conditions: for IC50: L834R at 200 nM, MnCl2 10 mM, read-out: IC50 for inhibition of L834R mutant kinase domain. As for the experimental part:
To test the role of segment 2, we produced a longer peptide (residues 336-412, MIG6(segments 1-2)), and analyzed its effect on a variant of the EGFR kinase domain that contains a mutation (L834R) that renders it constitutively active in the absence of concentration on vesicles. MIG6(segments 1-2) inhibits this mutant kinase domain with an IC50 value of ˜200 nM (FIG. 25a). MIG6(segments 1-2) bearing a mutation within segment 1 (Y358A) inhibited L834R much less efficiently (IC50˜5 μM).
(§1) Kinase assays were performed using methods known in the art and described herein. The substrate peptide was kept at 1 mM in all the experiments. The reported rates are the initial velocities normalized by the kinase concentrations. The wild-type kinase concentrations in the vesicle-based and solution-based assays were […] respectively.
(§2) A continuous enzyme-coupled kinase assay was performed to measure the kinase activity of the proteins as described in Barker et al., ((1995) Biochemistry, Vol. 34(54): 14843-51), with modifications, as described herein. The ATP concentration was kept to 0.5 mM.
(§3) The buffer used contained 10 mM MgCl2, 20 mM Tris, and pH 7.5. […] The substrate peptide was derived from the region spanning Y1173 in EGFR ([…]). All proteins used in this assay contained the N-terminal (His)6 tag unless otherwise noted.

Test [2] concerns the target T2, wild-type EGFR kinase domain in solution (Homo sapiens, UniProt P00533).
T2 construct: DNA encoding residues 672-998 of human EGFR was cloned into pFAST BAC HT; made in house; host or cells: Sf9 insect cells (baculovirus)
Put plainly: Kinase assay in solution, wild-type kinase domain (basal activity). Format: biochemical. The settings on record: result in words. On the procedure:
as §1, §2, §3
The protein concentrations of the EGFR kinase domain used in the assay ranged from 3.5 to 14 μM. The total concentration of the DOGS-NTA-Ni in the bulk solution was kept to 12.5 μM in all assays with DOG-NTA-Ni-containing vesicles. For assays of the kinase domain attached to vesicles, the protein and vesicles were preincubated at 4° C. for ˜5 min.

The next test concerns the target T3, full-length EGFR (Homo sapiens, UniProt P00533).
T3 construct: Cos-7 cells co-transfected with constructs containing full-length EGFR and MIG6; expressed in transfected cells; host or cells: Cos-7
Put plainly: Cell-based assay of EGFR autophosphorylation, Cos-7 cells co-transfected with EGFR and MIG6. The settings on record: co-expression with EGFR, EGF 50 ng/ml, western blot. From the text:
The wild-type and mutant forms of the EGFR kinase domain were expressed and purified using methods known in the art and described in Zhang et al., (2006). The 60-residue MIG6 peptide was expressed in bacteria as a glutathione S-transferase (GST)-fusion protein, purified and treated with the TEV protease to remove the GST-moiety. The wild-type and Y358A mutant MIG6(segments 1-2) peptides were fused to a Trp DLE leader peptide and expressed as inclusion bodies and purified as described. All other MIG6 peptides were produced using solid phase synthesis. […] The binding affinities between the kinase domain and fluorescein-labeled MIG6 peptides were measured by monitoring the change of fluorescence anisotropy during the titration and fitting the data to a single-site binding model. Kinase assays in solution and on vesicle were performed using methods known in the art and described herein. Cell-based inhibition assays were performed using Cos-7 cells co-transfected with constructs containing full-length EGFR and MIG6.
For cell-based assays, Cos-7 cells were co-transfected using Fugene 6 (Roche) with the DNA encoding the N-terminal Flag-tagged EGFR in pcDNA3.1 constructs and the wild-type or mutants of the MIG6 genes with a C-terminal Myc tag (also in pcDNA3.1). Cells were cultured for 36 h after transfection and serum-starved for 12 h. Cells were treated with EGF (50 ng ml^−1) for ˜5 min at 37° C., lysed and subjected to western blot analyses. The levels of total EGFR, EGFR autophosphorylation and MIG6 were probed using the anti-EGFR antibody SC03 (Santa Cruz), anti-phosphotyrosine antibody 4G10 (Upstate) and an anti-Myc antibody (Cell Signalling), respectively.
(In general: In western blotting, separated proteins are transferred to a membrane and probed.)

B1: MIG6(segments 1-2): longer MIG6 peptide, residues 336-412, expressed as Trp DLE fusion; M346 mutated to leucine (protein)
peptide: KSLPSYLNGVLPPTQSFAPDPKYVSSKALQRQNSEGSASKVPCILPIIENGKKVSSTHYYLLPERPPYLDKYEKFFR
One may read the IC50 as the concentration at which inhibition is half-maximal. On to B1, for which the IC50 in test [1] is about 200 nM. For the same molecule, the “inhibition of L834R mutant kinase domain” value in test [1] (result in words) is on record as “much more strongly”. Further, in test [2], the “inhibition of basal activity of wild-type kinase domain in solution” value is reported as “much less potent”.

B2: MIG6(segments 1-2) Y358A: MIG6 residues 336-412 bearing a mutation within segment 1 (Y358A) (protein)
peptide: KSLPSYLNGVLPPTQSFAPDPKAVSSKALQRQNSEGSASKVPCILPIIENGKKVSSTHYYLLPERPPYLDKYEKFFR
Take B2: the IC50 in test [1] is about 5000 nM. Also, the “inhibition of basal activity of wild-type kinase domain in solution” value in test [2] was “does not show any inhibition”.

B3: MIG6(M346A): full-length MIG6 with M346A mutation in segment 1, co-expressed in cells (protein)
chain: MSIAGVAAQEIRVPLKTGFLHNGRAMGNMRKTYWSSRSEFKNNFLNIDPITMAYSLNSSAQERLIPLGHASKSAPMNGHCFAENGPSQKSSLPPLLIPPSENLGPHEEDQVVCGFKKLTVNGVCASTPPLTPIKNSPSLFPCAPLCERGSRPLPPLPISEALSLDDTDCEVEFLTSSDTDFLLEDSTLSDFKYDVPGRRSFRGCGQINYAYFDTPAVSAADLSYVSDQNGGVPDPNPPPPQTHRRLRRSHSGPAGSFNKPAIRISNCCIHRASPNSDEDKPEVPPRVPIPPRPVKPDYRRWSAEVTSSTYSDEDRPPKVPPREPLSPSNSRTPSPKSLPSYLNGVAPPTQSFAPDPKYVSSKALQRQNSEGSASKVPCILPIIENGKKVSSTHYYLLPERPPYLDKYEKFFREAEETNGGAQIQPLPADCGISSATEKPDSKTKMDLGGHVKRKHLSYVVSP
modifications: left off: small tags and cut ends
notes: full-length MIG6 with M346A mutation in segment 1, co-expressed in cells
Regarding B3, the “EGF-induced autophosphorylation of EGFR” value with full-length EGFR is reported as “abolishes this effect”.

B4: MIG6(Y358A): full-length MIG6 with Y358A mutation in segment 1, co-expressed in cells (protein)
chain: MSIAGVAAQEIRVPLKTGFLHNGRAMGNMRKTYWSSRSEFKNNFLNIDPITMAYSLNSSAQERLIPLGHASKSAPMNGHCFAENGPSQKSSLPPLLIPPSENLGPHEEDQVVCGFKKLTVNGVCASTPPLTPIKNSPSLFPCAPLCERGSRPLPPLPISEALSLDDTDCEVEFLTSSDTDFLLEDSTLSDFKYDVPGRRSFRGCGQINYAYFDTPAVSAADLSYVSDQNGGVPDPNPPPPQTHRRLRRSHSGPAGSFNKPAIRISNCCIHRASPNSDEDKPEVPPRVPIPPRPVKPDYRRWSAEVTSSTYSDEDRPPKVPPREPLSPSNSRTPSPKSLPSYLNGVMPPTQSFAPDPKAVSSKALQRQNSEGSASKVPCILPIIENGKKVSSTHYYLLPERPPYLDKYEKFFREAEETNGGAQIQPLPADCGISSATEKPDSKTKMDLGGHVKRKHLSYVVSP
modifications: left off: small tags and cut ends
notes: full-length MIG6 with Y358A mutation in segment 1, co-expressed in cells
For the molecule B4, in the test with full-length EGFR, the “EGF-induced autophosphorylation of EGFR” value is “abolishes this effect”.

B5: MIG6(F352A): full-length MIG6 with F352A mutation in segment 1, co-expressed in cells (protein)
chain: MSIAGVAAQEIRVPLKTGFLHNGRAMGNMRKTYWSSRSEFKNNFLNIDPITMAYSLNSSAQERLIPLGHASKSAPMNGHCFAENGPSQKSSLPPLLIPPSENLGPHEEDQVVCGFKKLTVNGVCASTPPLTPIKNSPSLFPCAPLCERGSRPLPPLPISEALSLDDTDCEVEFLTSSDTDFLLEDSTLSDFKYDVPGRRSFRGCGQINYAYFDTPAVSAADLSYVSDQNGGVPDPNPPPPQTHRRLRRSHSGPAGSFNKPAIRISNCCIHRASPNSDEDKPEVPPRVPIPPRPVKPDYRRWSAEVTSSTYSDEDRPPKVPPREPLSPSNSRTPSPKSLPSYLNGVMPPTQSAAPDPKYVSSKALQRQNSEGSASKVPCILPIIENGKKVSSTHYYLLPERPPYLDKYEKFFREAEETNGGAQIQPLPADCGISSATEKPDSKTKMDLGGHVKRKHLSYVVSP
modifications: left off: small tags and cut ends
notes: full-length MIG6 with F352A mutation in segment 1, co-expressed in cells
Take B5: the “EGF-induced autophosphorylation of EGFR” value with full-length EGFR was “abolishes this effect”.
